According to publication PMC5579192, “De novo design of antibody complementarity determining regions binding a FLAG tetra-peptide” (Scientific Reports, 2017):

Tests used:
Conditions in all cases: both partners purified
[1] = molecular target: T1, MBP-KEE ligand (EE peptide) (peptide tag (EE/Glu-Glu), derived from …); experiment: ELISA; wells coated with carrier protein ligands (10 μg/mL); purified Fab serially diluted; detected with goat-anti-human kappa-HRP
T1 construct: EE peptide presented by MBP
T1 chain: EYMPME

[2] = molecular target: T2, carrier protein (scFv 14B7) with the minimal DYKD peptide at the n-terminus (synthetic peptide tag (minimal FLAG)); experiment: as above
T2 construct: minimal FLAG peptide at the protein n-terminus; irrelevant scFv 14B7 used as carrier protein; also called n-DYKD; n-DYKD ligand; source: plasmid pAK400/14B7

[3] = molecular target: T1, MBP-KEE ligand (EE peptide); experiment: ELISA; monoclonal phage ELISA: phage purified by NaCl-PEG precipitation, serially diluted at known pfu, on wells coated with ligand (4 μg/ml); detected with anti-M13-HRP; signal shown at 10^11 pfu
[4] = molecular target: T3, carrier protein (scFv 14B7) with the minimal DYKD peptide at the n-terminus (synthetic peptide tag (minimal FLAG)); experiment: ELISA; wells coated with carrier protein ligands (10 μg/mL); purified Fab serially diluted; detected with goat-anti-human kappa-HRP
T3 construct: minimal FLAG peptide at the protein n-terminus; irrelevant scFv 14B7 used as carrier protein; also called n-DYKD; n-DYKD ligand; source: plasmid pAK400/14B7
T3 chain: DYKD

[5] = molecular target: T1, MBP-KEE ligand (EE peptide); experiment: as above

Row | Binder | binding result [1] | binding result [3] | also measured
1 | EEf15.4 Fab (Fab, V domains shown, VH as the VH of m3: framework of the αEE scFv (PDB 3NN8) with designed CDRs H1-H3; heavy chain constant part of the Fab from the vector pFabF; not described; VL as the VL of m3: framework of the αEE scFv (PDB 3NN8) with designed CDRs L1-L3; kappa light chain constant domain from the vector pFabF; human by the detection reagent (goat anti-human kappa); also called Fab EEf15.4) VH: QVQLQQSGPEDVKPGASVKISCKASGFSIKGANVNWVKQSPGKGLEWLAHVRGDASTRYNPSLKSRATLTVDKTSSTVYLELRSLTSEDSSVYYCADRKMYSFYSGGEAWGQGTTVTVSS VL: DIVMTQTPSSLPVSLGDQASISCRSSNARSGSLEWYLQKPGQSPKLLIYDGNNRFSGVPDRFSGSGSGTDFTLKISRVEAEDLGIYYCSAFDQTNKYVGFGAGTKLELK | no binding | – | EC50 [2]: 4.1 nM
2 | EEf15.4a Fab (Fab, V domains shown, VH as the VH of m4: as EEf15.4 except CDR H1, which is that of design EEf5.1; framework of the αEE scFv (PDB 3NN8); heavy chain constant part of the Fab from the vector pFabF; not described; VL as the VL of m3: framework of the αEE scFv (PDB 3NN8) with designed CDRs L1-L3; kappa light chain constant domain from the vector pFabF; human by the detection reagent (goat anti-human kappa); also called …) VH: QVQLQQSGPEDVKPGASVKISCKASGYIGSSHTVNWVKQSPGKGLEWLAHVRGDASTRYNPSLKSRATLTVDKTSSTVYLELRSLTSEDSSVYYCADRKMYSFYSGGEAWGQGTTVTVSS VL: DIVMTQTPSSLPVSLGDQASISCRSSNARSGSLEWYLQKPGQSPKLLIYDGNNRFSGVPDRFSGSGSGTDFTLKISRVEAEDLGIYYCSAFDQTNKYVGFGAGTKLELK | no binding | – | EC50 [2]: 4.8 nM
3 | EEf15.4a scFv displayed on phage (scFv, V domains shown, VL as the VL of EEf15.4: framework of the αEE scFv (PDB 3NN8) with designed CDRs L1-L3; linker, printed as (GGGGS)4; VH as the VH of EEf15.4 except CDR H1, which is that of design EEf5.1; framework of the αEE scFv (PDB 3NN8); Result of a gene synthesis error that combined CDR H1 of EEf5.1 with the other five CDRs of EEf15.4; also called EEf15.4a scFv-phage; source: E. coli, scFv fused …) VH: QVQLQQSGPEDVKPGASVKISCKASGYIGSSHTVNWVKQSPGKGLEWLAHVRGDASTRYNPSLKSRATLTVDKTSSTVYLELRSLTSEDSSVYYCADRKMYSFYSGGEAWGQGTTVTVSS VL: DIVMTQTPSSLPVSLGDQASISCRSSNARSGSLEWYLQKPGQSPKLLIYDGNNRFSGVPDRFSGSGSGTDFTLKISRVEAEDLGIYYCSAFDQTNKYVGFGAGTKLELK | – | no binding | –
4 | EEf15.4 scFv displayed on phage (scFv, V domains shown, VL: framework of the αEE scFv (PDB 3NN8) with designed CDRs L1-L3; model PDB file in the supplementary datasets; linker, printed as (GGGGS)4; VH: framework of the αEE scFv (PDB 3NN8) with designed CDRs H1-H3; Orientation VL-(GGGGS)4-VH; no amino acid differences from αEE outside the CDRs; also called EEf15.4 scFv-phage; source: E. coli, scFv fused to truncated pIII on phage (phagemid pMopac24); …) VH: QVQLQQSGPEDVKPGASVKISCKASGFSIKGANVNWVKQSPGKGLEWLAHVRGDASTRYNPSLKSRATLTVDKTSSTVYLELRSLTSEDSSVYYCADRKMYSFYSGGEAWGQGTTVTVSS VL: DIVMTQTPSSLPVSLGDQASISCRSSNARSGSLEWYLQKPGQSPKLLIYDGNNRFSGVPDRFSGSGSGTDFTLKISRVEAEDLGIYYCSAFDQTNKYVGFGAGTKLELK | – | no binding | –
5 | EEh13.6 Fab (Fab, V domains shown, VH as the VH of m1: framework of the αEE scFv (PDB 3NN8) with designed CDRs H1-H3; heavy chain constant part of the Fab from the vector pFabF; not described; VL as in the αEE scFv (PDB 3NN8), not modified in the EEh library; kappa light chain constant domain from the vector pFabF; human by the detection reagent (goat anti-human kappa); This Fab co-purified with free light chain (33 % monomer); …) VH: QVQLQQSGPEDVKPGASVKISCKASGDSLSSFNAGVNWVKQSPGKGLEWLAHGAVMSTRYNPSLKSRATLTVDKTSSTVYLELRSLTSEDSSVYYCAKSTGRYDFWGQGTTVTVSS VL: DIVMTQTPSSLPVSLGDQASISCRSSQSIVHSNGNTYLEWYLQKPGQSPKLLIYKVSNRFSGVPDRFSGSGSGTDFTLKISRVEAEDLGIYYCFQGSLVPPTFGAGTKLELK | no binding | – | EC50 [4]: 21 nM
6 | EEh13.6 scFv displayed on phage (scFv, V domains shown, VL as in the αEE scFv (PDB 3NN8); the light chain was not modified in the EEh library; linker, printed as (GGGGS)4; VH: framework of the αEE scFv (PDB 3NN8) with designed CDRs H1-H3; model PDB file in the supplementary datasets; Orientation VL-(GGGGS)4-VH; no amino acid differences from αEE outside the CDRs; also called EEh13.6 scFv-phage; source: E. coli, scFv fused to truncated pIII on phage …) VH: QVQLQQSGPEDVKPGASVKISCKASGDSLSSFNAGVNWVKQSPGKGLEWLAHGAVMSTRYNPSLKSRATLTVDKTSSTVYLELRSLTSEDSSVYYCAKSTGRYDFWGQGTTVTVSS VL: DIVMTQTPSSLPVSLGDQASISCRSSQSIVHSNGNTYLEWYLQKPGQSPKLLIYKVSNRFSGVPDRFSGSGSGTDFTLKISRVEAEDLGIYYCFQGSLVPPTFGAGTKLELK | – | no binding | –
7 | EEh14.3 Fab (Fab, V domains shown, VH as the VH of m2: framework of the αEE scFv (PDB 3NN8) with designed CDRs H1-H3; heavy chain constant part of the Fab from the vector pFabF; not described; VL as in the αEE scFv (PDB 3NN8), not modified in the EEh library; kappa light chain constant domain from the vector pFabF; human by the detection reagent (goat anti-human kappa); also called Fab EEh14.3) VH: QVQLQQSGPEDVKPGASVKISCKASGDSLSSYNAGVNWVKQSPGKGLEWLAHMAGVSTRYNPSLKSRATLTVDKTSSTVYLELRSLTSEDSSVYYCVRNEWSGAFWGQGTTVTVSS VL: DIVMTQTPSSLPVSLGDQASISCRSSQSIVHSNGNTYLEWYLQKPGQSPKLLIYKVSNRFSGVPDRFSGSGSGTDFTLKISRVEAEDLGIYYCFQGSLVPPTFGAGTKLELK | no binding | – | EC50 [4]: 50 nM
8 | αEE Fab (parental) (Fab, V domains shown, VH of the αEE scFv; heavy chain constant part of the Fab; not described; VL of the αEE scFv; kappa light chain constant domain; human by the detection reagent (goat anti-human kappa); also called parental αEE Fab; source: bacterial periplasm, purified Fab) VH: QVQLQQSGPEDVKPGASVKISCKASGYSLSTSGMGVNWVKQSPGKGLEWLAHIYWDDDKRYNPSLKSRATLTVDKTSSTVYLELRSLTSEDSSVYYCARRGGSSHYYAMDYWGQGTTVTVSS VL: DIVMTQTPSSLPVSLGDQASISCRSSQSIVHSNGNTYLEWYLQKPGQSPKLLIYKVSNRFSGVPDRFSGSGSGTDFTLKISRVEAEDLGIYYCFQGSLVPPTFGAGTKLELK | – | – | EC50 [5]: 35.3 nM
9 | EEh14.3 scFv displayed on phage (scFv, V domains shown, VL as in the αEE scFv (PDB 3NN8); the light chain was not modified in the EEh library; linker, printed as (GGGGS)4; VH: framework of the αEE scFv (PDB 3NN8) with designed CDRs H1-H3; model PDB file in the supplementary datasets; Orientation VL-(GGGGS)4-VH; no amino acid differences from αEE outside the CDRs; also called EEh14.3 scFv-phage; source: E. coli, scFv fused to truncated pIII on phage …) VH: QVQLQQSGPEDVKPGASVKISCKASGDSLSSYNAGVNWVKQSPGKGLEWLAHMAGVSTRYNPSLKSRATLTVDKTSSTVYLELRSLTSEDSSVYYCVRNEWSGAFWGQGTTVTVSS VL: DIVMTQTPSSLPVSLGDQASISCRSSQSIVHSNGNTYLEWYLQKPGQSPKLLIYKVSNRFSGVPDRFSGSGSGTDFTLKISRVEAEDLGIYYCFQGSLVPPTFGAGTKLELK | – | no binding | –
